# B1: RA341 (nucleic acid)
# DNA: GCGGAATACCAGCATCGTCTTGATGCCCTTGGAAGTCCGCGTCCTGGATTCGCGGAAACGCGTACATCCAGCTGACGAGTCCCAAATAGGACGAAACGCGC
# modifications: expressed or natural sequence
# B2: RA336 (nucleic acid)
# DNA: GCGCGTCCTGGATTCGCGGAAAGTGATACCAGCATCGTCTTGATGCCCTTGGCAGCACTACGCGTACATCCAGCTGACGAGTCCCAAATAGGACGAAACGCGC
# modifications: expressed or natural sequence
# B3: RA345 (nucleic acid)
# DNA: GCGCGTCCTGGATTCGCGGAAACGCGTACATCCAGCTGACGAGTCCCAAATAGGACGAAACGCGAGAATACCAGCATCGTCTTGATGCCCTTGGAAGTCTC
# modifications: expressed or natural sequence
# B4: RA342 (nucleic acid)
# DNA: GCGCGTCCTGGATTCGCGGAAACGCGTACGGAATACCAGCATCGTCTTGATGCCCTTGGAAGTCCGCATCCAGCTGACGAGTCCCAAATAGGACGAAACGCGC
# modifications: expressed or natural sequence
# B5: RA344 (nucleic acid)
# DNA: GCGCGTCCTGGATTCGCGGAAACCCGGAATACCAGCATCGTCTTGATGCCCTTGGAAGTCCGGGCGTACATCCAGCTGACGAGTCCCAAATAGGACGAAACGCGC
# modifications: expressed or natural sequence
# B6: RA338 (nucleic acid)
# DNA: GCGCGTCCTGGATTCGCGGAAACGAGAATACCAGCATCGTCTTGATGCCCTTGGAAGTCTCGCGCGTACATCCAGCTGACGAGTCCCAAATAGGACGAAACGCGC
# modifications: expressed or natural sequence
# B7: RA340 (nucleic acid)
# DNA: GCGCAGTGATACCAGCATCGTCTTGATGCCCTTGGCAGCACTGTCCTGGATTCGCGGAAACGCGTACATCCAGCTGACGAGTCCCAAATAGGACGAAACGCGC
# modifications: expressed or natural sequence
# B8: RA335 (nucleic acid)
# DNA: GCGCGTCCTGGATTCGCGGAAACGCGTAGGAATACCAGCATCGTCTTGATGCCCTTGGAAGTCCCATCCAGCTGACGAGTCCCAAATAGGACGAAACGCGC
# modifications: expressed or natural sequence
# B9: RA339 (nucleic acid)
# DNA: GCGCGTCCTGGATTGGAATACCAGCATCGTCTTGATGCCCTTGGAAGTCCCGCGGAAACGCGTACATCCAGCTGACGAGTCCCAAATAGGACGAAACGCGC
# modifications: expressed or natural sequence
# B10: RA337 (nucleic acid)
# DNA: GCGCGTAGAATACCAGCATCGTCTTGATGCCCTTGGAAGTCTCCTGGATTCGCGGAAACGCGTACATCCAGCTGACGAGTCCCAAATAGGACGAAACGCGC
# modifications: expressed or natural sequence
# B11: RA343 (nucleic acid)
# DNA: GCGCGTCCGGAATACCAGCATCGTCTTGATGCCCTTGGAAGTCCGCTGGATTCGCGGAAACGCGTACATCCAGCTGACGAGTCCCAAATAGGACGAAACGCGC
# modifications: expressed or natural sequence
# B12: RA033 (nucleic acid)
# DNA: GCGCGTCCTGGATTCGCGGAAACGCGTACATCCAGCTGACGAGTCCCAAATCCGGAATACCAGCATCGTCTTGATGCCCTTGGAAGTCCGGAGGACGAAACGCGC
# modifications: expressed or natural sequence
# System: Renilla luciferase RNA
# Assay: Barcoded aptazyme variant library screen: un-cleaved Renilla luciferase RNA by barcode read counts, HEK293-T cells
# Type: cell-based
# Conditions: un-cleaved Renilla luciferase RNA by barcode read counts; with 1 mM theophylline (ON) over without theophylline (OFF); HEK293-T cells; triplicate
# How it was run: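 Aptazyme variants (seven theophylline aptamers inserted after each T3H48 ribozyme nucleotide, 9-nt barcoded) cloned into the 3′ UTR of Renilla luciferase in psiCHECK-2; cells cultured ± theophylline, in triplicate. RNA and DNA barcodes amplified and sequenced; normalized read counts gave un-cleaved RNA fraction and ON/OFF fold-change.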
row,Molecule,Fold change in RNA expression between the ON state and the OFF state
1,B1,0.9
2,B2,0.9
3,B3,0.9
4,B4,0.9
5,B5,0.9
6,B6,0.9
7,B7,0.9
8,B8,0.9
9,B9,0.9
10,B10,0.9
11,B11,0.9

# Same assay, conditions: un-cleaved Renilla luciferase RNA, HEK293-T cells cultured with 1 mM theophylline (ON) over without theophylline (OFF); barcode read counts, triplicate
row,Molecule,Fold change in RNA expression between the ON state and the OFF state
1,B12,2.3 fold

# Source: US20260167959A1, “APTAZYME-BASED REGULATABLE GENE EXPRESSION SYSTEMS” (REJUVENATE BIO INC, priority 2022, published 2026)
